Test results from a protein production outcome set (Wang et al. 2014).

Assay: label from the status in PepcDB records

Row | Sequence | protein production
1 | MSSSIEIFPDSDILVAAAGKRLVGAIGAAVAARGQALIVLTGGGNGIALLRYLSAQAQQIEWSKVHLFWGDERYVPEDDDERNLKQARRALLNHVDIPSNQVHPMAASDGDFGGDLDAAALAYEQVLAASAAPGDPAPNFDVHLLGMGPEGHINSLFPHSPAVLESTRMVVAVDDSPKPPPRRITLTLPAIQRSREVWLLVSGPGKADAVAAAIGGADPVSVPAAGAVGRQNTLWLLDRDAAAKLPS | not failed
2 | MSSSLDLAPELSVASTHPASTLAGHQPDLVLSPRLHNRDLAPTRMEGRRWGGYSIFALWTNDVHNIANYSFAMGLFALGLGGWQILLSLAIGAALVYFFMNLSGYMGQKTGVPFPVISRIAFGIHGAQIPALIRAVIAIAWFGIQTYLASVVLRVLLTAVWPQIAAYDHDSILGLSSLGWVCFVSIWLVQLVILAYGMEMVRRYEAFAGPVILLTVAALAVFMYFKADARIAWSVATPLTGYEMWRNIFAGGALWLAIYGTLVLNFCDFARSSPCRKTIRVGNFWGLPVNILVFAVITVVLCGAQFQINGQIIDSPTQIVAAIPSTPFLVLGCLAFLIVTVAVNIMANFVAPAFVLSNLAPRHLNFRRAGLISATLAVLILPWNLYNSPLVIVYFLSGLGALLGPLYGVIMSDYWLLRKGCINVPELYTEHPAGAYHYSKGINLRAVAAFVPAALLAIVLALVPNFQGIAPFSWLIGAGIAAALYLLIAPRNRHYHDVSGECIAVDHSGH | failed
3 | MSSSPEKKRRKKLSPESNSLPNDLIVTILARLSQSYYPKLSLVSKTFRAILASPELYQTRILLSRTETFLYVCLSFPGEPNPGWFTLYRKPNQTLTTKKKKNSVHLLAPILNSPPVEFPSLIAVGSYLYAFRAAIEEGTSDSLNCVEVYNTDTQTWIPVPPNKRIFKLQHMKGMLYMKVSKLLSFVAQDAEELAPLFPKLRSLLSTEVVAFKPKVSEGYEVLGFSVNTDLGRGSFCMIEEITYHYDPSVKFRWRRRQGGVWRSLVGLEGLPKFARYSSVKLADCGGKLVVLWHKYVPASGYEEKMVWCAEISLEKRSKKEIWGKIEWFDAVLRVPKYYQFVGAKSATV | failed
4 | MSSSSPGEPLEPTDQDLDVLLKNLGNLVTPMALRVAATLRLVDHLLAGADTLAGLADRTDTHPQALSRLVRHLTVVGVLEGGEKQGRPLRPTRLGMLLADGHPAQQRAWLDLNGAVSHADLAFTGLLDVVRTGRPAYAGRYGRPFWEDLSADVALADSFDALMSCDEDLAYEAPADAYDWSAVRHVLDVGGGNGGMLAAIALRAPHLRGTLVELAGPAERARRRFADAGLADRVTVAEGDFFKPLPVTADVVLLSFVLLNWSDEDALTILRGCVRALEPGGRLLVLDRADVEGDGADRFFSTLLDLRMLTFMGGRVRTRDEVVDLAGSAGLALASERTSGSTTLPFDFSILEFTAVSEEAAPAAQASEALPAQE | not failed
5 | MSSSSPSGSGSDLTERRGIPAAKFIQDVETYLSQSGLDPNSALAFHQERLQQYKVVEMKLLAQQRDLQAKIPDIEKCLEVVATLEAKKGTGEALLADFEVSEGIYSRACIEDTDSVCLWLGANVMLEYSCEEASALLKNNLENAKASLEVLVADLQFLRDQVTVTQVTIARVYNWDVHQRRVKQVTPTAIAVADS | failed
6 | MSSTASSVFADETLLFEPATPIANAVPLIFAFPNEYSVGITSLGFQIVWATLAARSDLQVSRLFTDIAEPLPRQPELLGFSLSWELDYVNILAMLEQLGIPLRSRDRGDEHPLVFGGGPTLTANPEPFADFFDVILVGDGEVLLDAFIDAYQPLRDRPRAEKLRQLAQVPGLYIPALYEPIYEAADGAIATIQPIDNDIPVQIEKQTYRGNVLSASTVVTPRAAWESIYMVEVVRSCPEMCRFCLASYLTLPFRTASLEESLQPAIARGLTATQRIGLLGASVTQHPEFPALLDRLGQPEFTDVRLSVASVRTNTVTEKFASILAQRGTKSLTIAVESGSERLRQVINKKLAQAEITEAAVNAKAGGLQGLKLYGMAGVPTETEDDLLATAEMLKGLKKAAPGLRLSYGCSTFVPKAQTPFQWQGVSPKAEKRLQFLQKQLRPQGIEFRPESYSWSVIQALISRGDRRLSSLLERVRHYGESLGSYRRAFKELKGTLPPLDFYVFQDWEPEAPLPWQHLRGPLPVETLRKHRQQAFAIAAAGVGSK | failed
7 | MSSTPATPAISPTQQSALALWRMRLITLLPLGAIAWISMVLADHPAIAHYGLSALTLAMGAGMVAANTMPKHWLAPLAPGMQFARHHLLRLGVALYGLRLTFGAIAALGVGGVVVPLTMLVATLLFGTWVGSSFFGLSRREAILVSAGSAVCGAAAAIAVSSVVRTDDRQTAVAVATVVLFGTVGMLLYPWLYELATQHWHLAISERSFGIFTGATLHEVAQVIASGKMVSDGAADAAVVAKMVRVLALGPLLLVMALWPRTSWSQASGGSRNLHGLLRSVPWFALGFVAVMALNSAQMVPADWKPALIGFDNWMLACAMLAIGLHTRIGDLLRAGRKPLALAGVLFLFLMVVGAALCALLV | failed
8 | MSSTSFTDLLGSSGVDCYEDDEDLRVSGSSFGGYYPERTGSGLPKFKTAQPPPLPISQSSHNFTFSDYLDSPLLLSSSHSLISPTTGTFPLQGFNGTTNNHSDFPWQLQSQPSNASSALQETYGVQDHEKKQEMIPNEIATQNNNQSFGTERQIKIPAYMVSRNSNDGYGWRKYGQKQVKKSENPRSYFKCTYPDCVSKKIVETASDGQITEIIYKGGHNHPKPEFTKRPSQSSLPSSVNGRRLFNPASVVSEPHDQSENSSISFDYSDLEQKSFKSEYGEIDEEEEQPEMKRMKREGEDEGMSIEVSKGVKEPRVVVQTISDIDVLIDGFRWRKYGQKVVKGNTNPRSYYKCTFQGCGVKKQVERSAADERAVLTTYEGRHNHDIPTALRRS | failed
9 | MSSWMMVPVVFLTAYSDPETIGRARRAGAYGYLLKPYDDRKLRAAVETALRRYRADVRDILKVHETAVRGPVPGVLIVEDEAIIAADLKQKLENAGFRVLGVHDTGEGAIAAASELEPDVVIMDVYIRGEMDGIKAAERIQERYGIPVIYLTAYSDDATLSRILESEPYGYLLKPLNTEQLQAEIEVVLENLRTTEDYSRRVREVLVTKAEEMKIEKTGIFFVSSVITALAVYGFITGSMTWLMYTLFIPTVYSLMHLAFSFGEPEKPSSSAMPMVSIIVPANNEENTIEGCVETLSALDYHVNGERNYEIIVVNDGSTDRTGEILEGLLRKHRHLKAVTRKAPFAFNGRVMPSMMVSPLPRGIL | failed
10 | MSSWRKPGPIPRDLSVEIDSSTERRIIAKLLPGVMGPGFRQDDAGEAAMSDPSAHWNNVYATKGETEVSWFQESPAISLDMIRSANVDRGAGIIDIGGGASRLVDALLQDGYRNLAVLDLSANALDAAKRRIGPAAASVDWIVADATTWRPARSYEVWHDRAAFHFLTDPRDRAAYVERLRSAVAAGGHVIIATFALDGPEKCSGLPVQRHDSKSLSTELGPDFELIETRSETHHTPWKSTQAFQFSRFRRRGS | failed
11 | MSSYSNELLMLIFRSMLCKQVLIFFAYSGLYYLVTYFMDKKIQHQKQFLLKLGLVKLKKRNKTRWEKIRWRMQLCLIVSILVLVVSTFVLNPDDQYILLVIYVMKLATFTSFAIAFVDSLGPIKEIQQLIVGAQSSDTLDSDKKVLTVTIFKKIRWMLILYQVLKVPALIIILTLSVDY | failed
12 | MSTAAETTGGDIEPWEEVTPDAARRLLVAAVEAFAERGYHATTTRDIAGRAGMSPAALYIHYKTKEELLHRISRIGHTRAVAILRSAAQGEGSAAERLADAVSSFVRWHAGRRTTARVVQYELDALGPEAREEILTLRRQCDAAVRGIIDDGVAAGEFDVPDVKGTTLAVLSLCIDVARWFNVNGPRTPDEVGALYADLVLRMVGAEPSGATAQR | not failed
13 | MSTDIDCIVIGAGVVGLAIARALAAGGHEVLVAEAAEGIGTGTSSRNSEVIHAGIYYPADSLKARLCVRGKHLLYEYCAARGVPHQRLGKLIVATSDAEASQLDSIARRAGANGVDDLQHIDGAAARRLEPALHCTAALVSPSTGIVDSHALMLAYQGDAESDGAQLVFHTPLIAGRVRPEGGFELDFGGAEPMTLSCRVLINAAGLHAPGLARRIEGIPRDSIPPEYLCKGSYFTLAGRAPFSRLIYPVPQHAGLGVHLTLDLGGQAKFGPDTEWIATEDYTLDPRRADVFYAAVRSYWPALPDGALAPGYTGIRPKISGPHEPAADFAIAGPASHGVAGLVNLYGIESPGLTASLAIAEETLARLAALEHHHHHH | not failed
14 | MSTDNLLQPKLIEATLGDYPVIQNMARFYVYDMSRYCGFISEEWTCPPDGLYESYDFKIYFTDPERKAFLIQIDNELAGFALLNKFGIQAVDWSMGEFFILAKFQGKGIGQSVAHQLWRTHPGEWEISVIPENIPALSFWRQAVMTYTL | not failed
15 | MSTDSVRSSTTGGSASGARTFCSLADLSTKKCVPCNAKDLRAMTEQSAQDLLQKVAGWDLANDNDTLKLHRSWRVKSFTKGLDFFQRVADIAESEGHHPDLHLVGWNNVKIEIWTHAIGGLTENDFILAAKINELQVEDLLRKKKVAK | failed
16 | MSTDTSGVGVREIDAGALPTRYARGWHCLGVAKDYLEGKPHGVEAFGTKLVVFADSHGDLKVLDGYCRHMGGDLSEGTVKGDEVACPFHDWRWGGDGRCKLVPYARRTPRMARTRSWTTDVRSGLLFVWHDHEGNPPDPAVRIPEIPEAASDEWTDWRWNRILIEGSNCRDIIDNVTDMAHFFYIHFGLPTYFKNVFEGHIASQYLHNVGRPDVDDLGTSYGEAHLDSEASYFGPSFMINWLHNRYGNYKSESILINCHYPVTQNSFVLQWGVIVEKPKGMSEEMTDKLSRVFTEGVSKGFLQDVEIWKHKTRIDNPLLVEEDGAVYQLRRWYEQFYVDVADIKPEMVERFEIEVDTKRANEFWNAEVEKNLKSREVSDDVPAEQH | not failed
17 | MSTFAFNLGGEFDKSFLSTPKAYGDVIKALPQNASKIELDYASVYDYDTDGCYATAAISPDGTTNPGLSLGGSPESVCRDVNRLENSNTYSRAKSNNGWTAIMYASYFEKDQSTSGPVALGHRHDWEHTIVWVKDSQVQYVTYSAHGNWYTNPRSNVRFDGNHPKIVYHKDGGSTHAFRLANSNDEPPENYYHQWLQLPMVGWNGYPSPNIREKLMTTNFGDATLEIKDGRFEKALANAKPPINFDPYAPELEDGGTYQIVSILNNSSVVDLNQADGNVQLWQNGNANNQKWKLVYDSNKSAYQIKNIANQNLVLTWNNLNGSNNVVATTNQNKEEQYWIPTEAGNGYYYVRNKKDQNKVLDVSGYGTANGTNVTVYNFHGGNNQTFQLSNVTGTLTREVESLYKAQPGQTSRSSNNFSLEHLAAGTKVRVVLEGAGATSLSFKIARDKSGTDPVIWSNVRDGSILTIPSGDDRKNLYIAGPPSGYTSNGTFKVKFYALPN | failed
18 | MSTGATIVIDLGKTLSKVSLWDLDGRMLDRQVRPSIPLEIDGIRRLDAPDTGRWLLDVLSRYADHPVTTIVPVGHGAGIAALTDGRLAFPPLDYEQSIPEAVMADYRSQRDPFARTGSPALPDGLNIGSQLWWLDQLHPDVMANATLLPWAQYWAWFLTGRAVSEVTSLGCHSDLWDPQDGDFSPMAKRLGWAARFAPIVRAGDTVGALLPAIAERTGLSPDVQVLAGLHDSNAALLAARGFAEIADNEATVLSTGTWFIAMRLPATPVDTATLPEARDCLVNVDVHGRPVPSARFMGGREIETLIEIDTRRVDIKPDQPALLAAVPEVLRHGRMILPTLMRGFGPYPHGRFAWINRPEDWFERRAAACLYAALVADTALDLIGSTGRILVEGRFAEADVFVRALASLRPDCAVYTANAHNDVSFGALRLIDPGLRPQGELVRIEPLDTGSWADLDTYRNRWQAEVEAAKVEPITLEHHHHHH | not failed
19 | MSTLISTPRTKMSPIRAEDWALFQRLHIEPSVISLCFDKPDERVLRDKFESRLASWTPECDHWLCLTIFDANTQQPIGITGFVLEEDKAEVGYLLLPEFHGQQFGTETLNALLHWAETTHDILRFSATVTEGNVASERVLTKCGFELSQVIPDAYQIGGKHYADKIYSRQK | failed
